{"source": "patent US20240209061A1", "about": "“FUSION PROTEINS AND USES THEREOF” (Pfizer Inc., priority 2020, published 2024)", "key": {"[1]": {"system": "Jurkat-IL-2-Luc reporter cells", "assay": "Jurkat-IL-2-Luc and HCT116-CD64 reporter co-stimulation assay", "format": "cell-based, human", "text": "A T cell co-stimulation assay was designed based on T Cell Activation Bioassay (IL-2) Kit from Promega (Product #J1631). The assay consisted of a genetically engineered Jurkat T cell line that expresses luciferase reporter driven by an IL-2 promoter. Co-engagement of T cell antigen receptor (TCR/CD3) and CD28 co-stimulatory receptor induces activation of T cells and downstream intracellular signaling pathways that in turn regulate the expression of luciferase reporter. As described above, HCT116 human colon cancer cell line was used for TCR engagement using the CDH3×CD3 bispecific and genetically engineered by lentiviral transduction to express human FCγRI.\nA 96 well culture plate was seeded with HCT116 parental or HCT116-CD64 cells at 40,000 cells per well in 100 μL RPMI with 10% HI FBS and grown overnight at 37° C. in CO2 incubator. To each well, Jurkat reporter cells (100,000 per well) and 10 μL of the CDH3×CD3 bispecific (8 ng/ml final concentration) were added. 10 μL of serial dilutions of variant CD80-Fc fusion proteins with concentrations ranging from 0-1000 ng/ml (final concentrations per well) was added with appropriate controls. Assay plates were incubated for 6 hours at 37° C. in CO2 incubator for before harvesting culture supernatants and transferring to new plates. Following equilibration, 80 μL of BioGlo luminescence reagent (BioGlo Luciferase assay kit, Promega, G7940) was added into each well. Plates were incubated for 5 minutes before reading luminescence on the EnSight™ plate reader (PerkinElmer).\nJurkat is an immortalized human T cell line, and the Jurkat IL-2-reporter assay assesses the CD28-mediated signaling resulting in activation of the IL-2 promoter. The activity of CD80-Fc fusion proteins was measured using the co-culture HCT116-CD64-Jurkat IL-2 reporter assay, as described in Example 2, but using 20 ng/ml CDH3×CD3 bispecific."}, "[2]": {"system": "peripheral blood mononuclear cells (PBMC)", "assay": "RESTORE cytokine release assay in absence of TCR stimulation", "format": "cell-based, human", "parameters": "IFNγ: unit not given beside the values", "protocol": "The ability of variant CD80-Fc fusion proteins to promote cytokine release in the absence of TCR stimulation was assessed in the RESTORE (RESetting T cells to Original Reactivity) assay (Römer et al, Blood, 2011). Freshly isolated peripheral blood mononuclear cells (PBMC) from whole blood of several healthy donors were cultured for 48 hours at […] within RPMI1640 media supplemented with 10% autologous plasma, 10 mM HEPES, 1× GlutaMAX, 1× PenStrep, beta2-mercaptoethanol, NEAA and sodium pyruvate. Following the 48-hour incubation, PBMC were pelleted and resuspended at a final concentration of 10^6/ml with indicated soluble drug. Treatment was allowed for 48 hours then supernatant was harvested and assessed in IL-2 and IFNγ ELISA according to manufacturer's protocol (BioLegend).\nPositive controls included CD28 superagonist anti-CD28 clone TGN1412 as IgG1 and IgG4 isotypes and anti-CD3. […] Values shown are the average of 3 technical replicates. D=Donor."}, "[3]": {"assay": "Pharmacokinetics in huFcRn transgenic mice", "details": "0.1 mg/kg IV", "description": "PK of CD80-Fc fusion proteins was also assessed in transgenic mice expressing the human neonatal Fc receptor (huFcRn) a-chain transgene under the control of its natural human promoter. Female mice were dosed intravenously with CD80-Fc fusion proteins at 0.1 mg/kg, and blood was collected at the timepoints indicated on the graph. Levels of CD80-Fc in mouse plasma were measured as described above."}, "[4]": {"assay": "Thermal stability by Differential Scanning calorimetry (DSC)", "format": "physicochemical", "details": "PBS", "protocol": "There is a correlation between the thermal stability of a protein with the overall stability of the protein. Enhanced thermal stability often provides improved manufacturability and longer shelf life/stability. Thermal stability of variant CD80-Fc fusion proteins was assessed by Differential Scanning calorimetry (DSC). Variant CD80-Fc fusion proteins were analyzed using a MicroCal VP-DSC instrument. […] Tables 8-10 show the first thermal transition temperature (Tm1) of CD80-Fc fusion proteins and the enhanced thermal stability of variant CD80-Fc fusion proteins compared to CD80-WT-Fc fusion proteins."}}}
{"substance": "CD80-K89Q-D90Q-E23C-A26C-Fc: disulfide stabilized variant CD80-Fc fusion protein (K89Q, D90Q, E23C, A26C)", "values": [{"measurement": "EC50", "setting": "[1]; Table 17, 20 ng/ml CDH3×CD3 bispecific, n=2", "value": "0.27 ± 0.044", "unit": "nM"}, {"measurement": "IFNγ", "setting": "[2]; Table 20, D222, 1 μg/ml", "value": 7.3}, {"measurement": "IFNγ", "setting": "[2]; Table 20, D222, 10 μg/ml", "value": 4.3}, {"measurement": "IL-2", "setting": "[2]; Table 20, D222, 10 μg/ml", "value": 6.7}, {"measurement": "IFNγ", "setting": "[2]; Table 20, D281, 1 μg/ml", "value": 3.0}, {"measurement": "IL-2", "setting": "[2]; Table 20, D281, 1 μg/ml", "value": 2.7}, {"measurement": "IFNγ", "setting": "[2]; Table 20, D281, 10 μg/ml", "value": 3.7}, {"measurement": "IL-2", "setting": "[2]; Table 20, D281, 10 μg/ml", "value": 5.7}, {"measurement": "IFNγ", "setting": "[2]; Table 20, D462, 1 μg/ml", "value": 7.0}, {"measurement": "IL-2", "setting": "[2]; Table 20, D462, 1 μg/ml", "value": 2.0}, {"measurement": "IFNγ", "setting": "[2]; Table 20, D462, 10 μg/ml", "value": 7.3}, {"measurement": "IL-2", "setting": "[2]; Table 20, D462, 10 μg/ml", "value": 3.0}, {"measurement": "IFNγ", "setting": "[2]; Table 20, D547, 1 μg/ml", "value": 4.3}, {"measurement": "IL-2", "setting": "[2]; Table 20, D547, 1 μg/ml", "value": 13.3}, {"measurement": "IFNγ", "setting": "[2]; Table 20, D547, 10 μg/ml", "value": 3.0}, {"measurement": "IL-2", "setting": "[2]; Table 21, D132, 1.9 μg/ml", "value": 0.0}, {"measurement": "IL-2", "setting": "[2]; Table 21, D132, 5.6 μg/ml", "value": 0.0}, {"measurement": "IL-2", "setting": "[2]; Table 21, D132, 16.7 μg/ml", "value": 0.3}, {"measurement": "IL-2", "setting": "[2]; Table 21, D149, 1.9 μg/ml", "value": 0.0}, {"measurement": "IL-2", "setting": "[2]; Table 21, D149, 5.6 μg/ml", "value": 0.0}, {"measurement": "IL-2", "setting": "[2]; Table 21, D149, 16.7 μg/ml", "value": 0.0}, {"measurement": "IL-2", "setting": "[2]; Table 21, D149, 50 μg/ml", "value": 0.0}, {"measurement": "IL-2", "setting": "[2]; Table 21, D379, 1.9 μg/ml", "value": 29.0}, {"measurement": "IL-2", "setting": "[2]; Table 21, D379, 5.6 μg/ml", "value": 2.3}, {"measurement": "IL-2", "setting": "[2]; Table 21, D379, 16.7 μg/ml", "value": 0.0}, {"measurement": "IL-2", "setting": "[2]; Table 21, D379, 50 μg/ml", "value": 0.0}, {"measurement": "IL-2", "setting": "[2]; Table 21, D399, 1.9 μg/ml", "value": 0.0}, {"measurement": "IL-2", "setting": "[2]; Table 21, D399, 5.6 μg/ml", "value": 2.0}, {"measurement": "IL-2", "setting": "[2]; Table 21, D399, 16.7 μg/ml", "value": 0.0}, {"measurement": "IL-2", "setting": "[2]; Table 21, D399, 50 μg/ml", "value": 0.0}, {"measurement": "IL-2", "setting": "[2]; Table 21, D417, 1.9 μg/ml", "value": 3.0}, {"measurement": "IL-2", "setting": "[2]; Table 21, D417, 5.6 μg/ml", "value": 0.0}, {"measurement": "IL-2", "setting": "[2]; Table 21, D417, 16.7 μg/ml", "value": 0.3}, {"measurement": "IL-2", "setting": "[2]; Table 21, D417, 50 μg/ml", "value": 0.0}, {"measurement": "IL-2", "setting": "[2]; Table 21, D518, 1.9 μg/ml", "value": 0.0}, {"measurement": "IL-2", "setting": "[2]; Table 21, D518, 5.6 μg/ml", "value": 2.0}, {"measurement": "IL-2", "setting": "[2]; Table 21, D518, 16.7 μg/ml", "value": 1.7}, {"measurement": "IL-2", "setting": "[2]; Table 21, D518, 50 μg/ml", "value": 2.7}, {"measurement": "IFNγ", "setting": "[2]; Table 22, D132, 1.9 μg/ml", "value": 0.0}, {"measurement": "IFNγ", "setting": "[2]; Table 22, D132, 5.6 μg/ml", "value": 78.0}, {"measurement": "IFNγ", "setting": "[2]; Table 22, D132, 16.7 μg/ml", "value": 0.0}, {"measurement": "IFNγ", "setting": "[2]; Table 22, D132, 50 μg/ml", "value": 0.0}, {"measurement": "IFNγ", "setting": "[2]; Table 22, D149, 1.9 μg/ml", "value": 0.0}, {"measurement": "IFNγ", "setting": "[2]; Table 22, D149, 5.6 μg/ml", "value": 0.0}, {"measurement": "IFNγ", "setting": "[2]; Table 22, D149, 16.7 μg/ml", "value": 0.0}, {"measurement": "IFNγ", "setting": "[2]; Table 22, D149, 50 μg/ml", "value": 41.3}, {"measurement": "IFNγ", "setting": "[2]; Table 22, D379, 1.9 μg/ml", "value": 0.0}, {"measurement": "IFNγ", "setting": "[2]; Table 22, D379, 5.6 μg/ml", "value": 0.0}, {"measurement": "IFNγ", "setting": "[2]; Table 22, D379, 16.7 μg/ml", "value": 0.0}, {"measurement": "IFNγ", "setting": "[2]; Table 22, D379, 50 μg/ml", "value": 0.0}, {"measurement": "IFNγ", "setting": "[2]; Table 22, D399, 1.9 μg/ml", "value": 0.0}, {"measurement": "IFNγ", "setting": "[2]; Table 22, D399, 5.6 μg/ml", "value": 0.0}, {"measurement": "IFNγ", "setting": "[2]; Table 22, D399, 16.7 μg/ml", "value": 0.0}, {"measurement": "IFNγ", "setting": "[2]; Table 22, D399, 50 μg/ml", "value": 4.3}, {"measurement": "IFNγ", "setting": "[2]; Table 22, D417, 1.9 μg/ml", "value": 0.0}, {"measurement": "IFNγ", "setting": "[2]; Table 22, D417, 5.6 μg/ml", "value": 0.0}, {"measurement": "IFNγ", "setting": "[2]; Table 22, D417, 16.7 μg/ml", "value": 0.0}, {"measurement": "IFNγ", "setting": "[2]; Table 22, D417, 50 μg/ml", "value": 0.0}, {"measurement": "IFNγ", "setting": "[2]; Table 22, D518, 1.9 μg/ml", "value": 0.0}, {"measurement": "IFNγ", "setting": "[2]; Table 22, D518, 5.6 μg/ml", "value": 0.0}, {"measurement": "IFNγ", "setting": "[2]; Table 22, D518, 16.7 μg/ml", "value": 20.7}, {"measurement": "IFNγ", "setting": "[2]; Table 22, D518, 50 μg/ml", "value": 0.0}, {"measurement": "AUC", "setting": "[3]", "value": 182, "unit": "µg·h/mL"}, {"measurement": "CL", "setting": "[3]", "value": 8.6, "unit": "mL/day/kg"}, {"measurement": "T1/2", "setting": "[3]", "value": 211, "unit": "h"}, {"measurement": "Vdss", "setting": "[3]", "value": 0.109, "unit": "L/kg"}, {"measurement": "Cmax", "setting": "[3]; average of 3 animals", "value": 2200, "unit": "ng/mL"}, {"measurement": "DSC Tm1", "setting": "[4]", "value": "67.28 ± 0.2", "unit": "°C"}]}
{"substance": "CD80-K89Q-D90Q-Fc: variant CD80 ECD (K89Q, D90Q) fused to human IgG1 Fc", "values": [{"measurement": "enhanced co-stimulation compared to CD80-WT-Fc", "setting": "[1]", "value": "about 4 fold"}, {"measurement": "IFNγ", "setting": "[2]; Table 20, D222, 1 μg/ml", "value": 3.7}, {"measurement": "IL-2", "setting": "[2]; Table 20, D222, 1 μg/ml", "value": 4.3}, {"measurement": "IFNγ", "setting": "[2]; Table 20, D222, 10 μg/ml", "value": 4.0}, {"measurement": "IL-2", "setting": "[2]; Table 20, D222, 10 μg/ml", "value": 4.0}, {"measurement": "IFNγ", "setting": "[2]; Table 20, D281, 1 μg/ml", "value": 3.3}, {"measurement": "IL-2", "setting": "[2]; Table 20, D281, 1 μg/ml", "value": 2.3}, {"measurement": "IFNγ", "setting": "[2]; Table 20, D281, 10 μg/ml", "value": 6.7}, {"measurement": "IFNγ", "setting": "[2]; Table 20, D462, 1 μg/ml", "value": 7.0}, {"measurement": "IFNγ", "setting": "[2]; Table 20, D462, 10 μg/ml", "value": 15.0}, {"measurement": "IL-2", "setting": "[2]; Table 20, D462, 10 μg/ml", "value": 1.7}, {"measurement": "IFNγ", "setting": "[2]; Table 20, D547, 1 μg/ml", "value": 4.0}, {"measurement": "IL-2", "setting": "[2]; Table 20, D547, 1 μg/ml", "value": 6.3}, {"measurement": "IFNγ", "setting": "[2]; Table 20, D547, 10 μg/ml", "value": 8.0}, {"measurement": "IL-2", "setting": "[2]; Table 20, D547, 10 μg/ml", "value": 3.3}, {"measurement": "DSC Tm1", "setting": "[4]", "value": "59.67 ± 0.10", "unit": "°C"}]}
